Assay results reported in US9809653B2, “Anti-LAMP1 antibodies and antibody drug conjugates, and uses thereof” (SANOFI, priority 2012, dated 2017).
Residue numbers refer to the chain shown, from its start. Blank lines part the entries; values can stand above or below the molecule they belong to.

Assays:
[1] = target: T1, Hybrid LAMP1 / glycan-deleted LAMP1 transmembrane proteins (Mus musculus, UniProt P11438, E181G/G176S/K180R/N177S/S175N); assay: Binding onto membrane-anchored hybrid or mutated LAMP1 proteins (293-F cells) by flow cytometry; parameters: species or system human/mouse; conditions: pXL6048 mLAMP1_hseq11_ΔGYQTI
T1 construct: expressed in transfected cells; host or cells: 293-F (HEK293-derived), transient transfection
T1 sequence (P11438 with tags, fused parts or gaps S175N/G176S/N177S/K180R/E181G): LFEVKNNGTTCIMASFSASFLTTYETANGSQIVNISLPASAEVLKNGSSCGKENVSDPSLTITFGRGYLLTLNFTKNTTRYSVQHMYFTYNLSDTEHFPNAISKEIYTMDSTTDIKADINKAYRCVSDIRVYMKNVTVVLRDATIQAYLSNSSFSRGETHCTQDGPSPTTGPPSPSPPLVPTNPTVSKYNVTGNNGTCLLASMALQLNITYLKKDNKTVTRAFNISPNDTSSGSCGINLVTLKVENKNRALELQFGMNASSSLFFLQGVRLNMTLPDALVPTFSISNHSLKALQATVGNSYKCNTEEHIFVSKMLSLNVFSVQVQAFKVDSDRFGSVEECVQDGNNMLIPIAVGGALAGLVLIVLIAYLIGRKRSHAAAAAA
Protocol: (§1) Different LAMP1 proteins were expressed at the cell membrane of HEK293 cells after transient expression from mammalian plasmids encoding the entire coding sequence of LAMP1 deleted of the intracellular lysosome-targeting motif GYQTI and substituted by a 5-Ala repeat sequence.
(§2) Two days post transfection cells were processed, analyzed by flow cytometry (Guava® easyCyte™ 8HT) as mentioned in example 4.7, and the mean fluorescence was recorded. This fluorescence represents a semi-quantitative assessment of binding.

[2] = target: T2, Hybrid LAMP1 / glycan-deleted LAMP1 transmembrane proteins (Homo sapiens, UniProt P11279, A93T/T85V/V91T); assay: as above; parameters: species or system human/mouse; conditions: pXL6017 LAMP1_mseq5_ΔGYQTI; Table 18
T2 construct: expressed in transfected cells; host or cells: 293-F (HEK293-derived), transient transfection
T2 sequence (P11279 with tags, fused parts or gaps T85V/V91T/A93T): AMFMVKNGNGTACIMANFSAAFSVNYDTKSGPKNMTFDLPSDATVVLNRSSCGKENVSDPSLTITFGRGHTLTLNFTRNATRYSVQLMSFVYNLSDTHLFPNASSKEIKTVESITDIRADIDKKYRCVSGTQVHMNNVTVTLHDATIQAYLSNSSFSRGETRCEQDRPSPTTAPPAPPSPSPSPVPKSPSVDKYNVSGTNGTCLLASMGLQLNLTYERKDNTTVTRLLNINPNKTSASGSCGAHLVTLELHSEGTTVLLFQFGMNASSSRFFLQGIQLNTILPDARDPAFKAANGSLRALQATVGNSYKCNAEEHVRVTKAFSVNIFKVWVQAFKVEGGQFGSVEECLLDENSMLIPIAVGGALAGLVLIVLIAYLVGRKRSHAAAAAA
Protocol: as §1, §2

[3] = target: T3, Hybrid LAMP1 / glycan-deleted LAMP1 transmembrane proteins (Homo sapiens, UniProt P11279, D70S/L75K/R77G/S69A/T72E/V74L); assay: as above; parameters: species or system human/mouse; conditions: pXL6015 LAMP1_mseq4_ΔGYQTI; Table 18
T3 construct: expressed in transfected cells; host or cells: 293-F (HEK293-derived), transient transfection
T3 sequence (P11279 with tags, fused parts or gaps S69A/D70S/T72E/V74L/L75K/R77G): T2 sequence (P11279 with tags, fused parts or gaps T85V/V91T/A93T) with S41A, D42S, T44E, V46L, L47K, R49G, V57T, T63V, T65A
Protocol: as §1, §2

[4] = target: T4, Hybrid LAMP1 / glycan-deleted LAMP1 transmembrane proteins (Mus musculus, UniProt P11438, K100R/L93T/T102A/Y92H); assay: as above; parameters: species or system human/mouse; conditions: pXL6047 mLAMP1_hseq6_ΔGYQTI
T4 construct: expressed in transfected cells; host or cells: 293-F (HEK293-derived), transient transfection
T4 sequence (P11438 with tags, fused parts or gaps Y92H/L93T/K100R/T102A): T1 sequence (P11438 with tags, fused parts or gaps S175N/G176S/N177S/K180R/E181G) with Y68H, L69T, K76R, T78A, N151S, S152G, S153N, R156K, G157E
Protocol: as §1, §2

[5] = test system: Hybrid LAMP1 / glycan-deleted LAMP1 transmembrane proteins; assay: as above; parameters: species or system human/mouse; conditions: pXL6012 LAMP1_mseq1_ΔGYQTI; Table 18
Hybrid LAMP1 / glycan-deleted LAMP1 transmembrane proteins, sequence (as listed by the source, stated change not applied): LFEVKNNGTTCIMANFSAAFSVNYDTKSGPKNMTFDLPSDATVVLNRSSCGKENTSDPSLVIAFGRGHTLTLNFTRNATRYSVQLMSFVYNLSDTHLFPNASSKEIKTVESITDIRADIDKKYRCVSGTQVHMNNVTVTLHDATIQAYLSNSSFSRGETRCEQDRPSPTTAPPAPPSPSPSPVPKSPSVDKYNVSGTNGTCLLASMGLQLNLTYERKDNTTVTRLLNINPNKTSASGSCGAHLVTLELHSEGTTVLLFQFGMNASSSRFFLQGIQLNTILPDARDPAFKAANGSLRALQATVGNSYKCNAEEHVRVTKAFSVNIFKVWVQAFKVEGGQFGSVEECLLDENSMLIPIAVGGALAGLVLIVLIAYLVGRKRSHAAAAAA
Protocol: as §1, §2

[6] = test system: cynomolgus LAMP1 expressed at the cell surface of recombinant HCT116; assay: FACS on recombinant HCT116 stable clones expressing cynomolgus LAMP1; assay type: binding, cynomolgus monkey; conditions: HCT116 stable clone
cynomolgus LAMP1 expressed at the cell surface of recombinant HCT116, sequence (as listed by the source): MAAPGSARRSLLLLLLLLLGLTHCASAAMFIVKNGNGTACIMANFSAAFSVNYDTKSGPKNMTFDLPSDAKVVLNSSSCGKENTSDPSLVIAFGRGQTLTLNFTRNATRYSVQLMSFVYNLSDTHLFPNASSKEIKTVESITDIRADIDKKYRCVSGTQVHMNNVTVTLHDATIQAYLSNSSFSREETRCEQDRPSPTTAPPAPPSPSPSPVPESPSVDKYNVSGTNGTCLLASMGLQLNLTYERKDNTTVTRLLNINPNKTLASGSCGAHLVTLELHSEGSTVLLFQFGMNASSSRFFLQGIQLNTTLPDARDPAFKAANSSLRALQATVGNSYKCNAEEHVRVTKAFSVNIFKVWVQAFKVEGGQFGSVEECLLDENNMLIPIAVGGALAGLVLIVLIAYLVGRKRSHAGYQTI
Protocol: HCT116 cells were infected by a lentiviral vector allowing stable integration of the human or the cynomolgus LAMP1 CDS in genomic DNA of cells. Individual clones with different densities of human or cynomolgus LAMP1 cell surface localization were derived from a pool of HCT116 infected cells. […] 100 μL/well of goat anti-human IgG conjugated with Alexa488 (Invitrogen; #A11013) was added for 1 h at 4° C. and washed two times with PBS 1% BSA. The antibody binding was evaluated after centrifugation and resuspension of cells in 100 μl fixing solution (paraformaldehyde at 4% in PBS). Samples were read using Galaxy® Flow Cytometry System (Partec). EC50 values were estimated using BIOST@T-SPEED software.
100 μL/well of goat anti-mouse IgG conjugated with Alexa647 (Invitrogen; #A2135) was added for 45 min at 4° C. and washed three times with PBS 1% BSA. The antibody binding was evaluated after centrifugation and re-suspension of cells by adding 200 μl/well PBS 1% BSA and read using Guava® easyCyte™ 8HT Flow Cytometry System. EC50 values were estimated using BIOST@T-SPEED software.

Binding call ([1]; Table 17 Experiment no1): No binding
Mean fluorescence ([1]; Table 17 Experiment no1): 6
Binding call ([1]; Table 17 Experiment no2): No binding
Mean fluorescence ([1]; Table 17 Experiment no2): 2
Binding call [2]: Binding
Mean fluorescence [2]: 846
Binding call [3]: Binding
Mean fluorescence [3]: 891
Binding call ([4]; Table 17 Experiment no1): No binding
Mean fluorescence ([4]; Table 17 Experiment no1): 7
Binding call ([4]; Table 17 Experiment no2): No binding
Mean fluorescence ([4]; Table 17 Experiment no2): 3
EC50 [6]: 5.5 nM
B1: MAb1: murine monoclonal anti-LAMP1 antibody, VH SEQ ID NO: 1, VL SEQ ID NO: 5 (antibody, V domains shown)
VH: QVQLQQSGAELVKPGASVKMSCKASGYIFTNYNIHWVKKSPGQGLEWIGAIYPGNGDAPYSQKFKDKATLTADKSSSTTYMQLSRLTSEDSAVYYCVRANWDVAFAYWGQGTLVSVSA
VL: DIQMTQSPPSLSASLGGKVTITCKASQDIDRYMAWYQDKPGKGPRLLIHDTSTLQPGIPSRFSGSGSGRDYSFSISNLEPEDIATYYCLQYDNLWTFGGGTKLEIK
modifications: Antibody Fragment; antibody fragment
Mean fluorescence [5]: 1027

Binding call ([1]; Table 17 Experiment no1): No binding
Mean fluorescence ([1]; Table 17 Experiment no1): 28
Binding call [2]: Binding
Mean fluorescence [2]: 629
Binding call [3]: No binding
Mean fluorescence [3]: 27
Binding call ([4]; Table 17 Experiment no1): No binding
Mean fluorescence ([4]; Table 17 Experiment no1): 25
EC50 [6]: 6.6 nM
B2: MAb2: murine monoclonal anti-LAMP1 antibody, VH SEQ ID NO: 8, VL SEQ ID NO: 12 (antibody, V domains shown)
VH: QVQLQQSAAELARPGASVKMSCKASGYTFTSYTMHWVKQRPGQGLEWIGYFNPSSGYPEYNQKFKDKTTLTADKSSNTAFIQLNSLTSEDSAVYYCSRGYYYGSRGYALDFWGQGASVTVSS
VL: NIVLTQSPVSLAVSLGQRATISCRASESVDINGNTFMHWYQQKPGQSPKLVIYAASNIESGVPARFSGSGSSTDFTFTIDPVEADDVATYYCQQNIEDPWTFGGGTKVEIK
modifications: antibod fragment; antibody fragment
Binding call [5]: Low binding
Mean fluorescence [5]: 105
